Test results as given in paper doi:10.1101/2023.06.06.543845.

Target: Mycobacterium thermoresistibile NrdI (Mycobacterium thermoresistibile)
Assay: cryo-EM structure

“Mycobacterium thermoresistibile NrdF2 (enzyme)” was tested, and the stoichiometry N (NrdF2 per NrdI) was 2.
